# Experimental data taken from patent publication US20210072252A1.
# T1: Leu
# T1 sequence (peptide): LGMMGSSC
# B1: Phosphotyrosine NAAB (designed binder)
# chain: MDEFEMIKRNTSEIISELREVLKKDEKSALIGFEPSGKIHLGHYLQKKMIDLQNAGFDIIIPLADLHAYLNQKGELDEIRKIGDYNKKVFEAMLKAKYVYGSEFQLDKYTLNVYRLALKTTLKARRSMELIAREDENPVAEVIYPIMQVNGCHYKGVDVAVGGMEQRKIMLARELLPKKVVCIHPVLTGLDGEGKMSSSGNFIAVDDSPEEIRAFKKAYCPAGVVEGNPEIAKYFLEYPLTIKPEKFGGDLTVNSYEESLFKNKELHPMDLKAVAEELIKILEPIRK
# B2: engineered MetRS domain (Met NAAB), GST-MetRS fusion labeled with Cy5 (designed binder, not shown: a dimerising Fc or GST)
# chain: AKKILVTCASPYANGSIHLGHMLEHIQADVWVRYQRMRGHEVNFICADDAHGTPIMLKAQQLGITPEQMIGEMSQEHQTDFAGFNISYDNYHSTHSEENRQLSELIYSRLKENGFIKNRTISQLYDPEKGMFLPDRFVKGTCPKCKSPDQYGDNCEVCGATYSPTELIEPKSVVSGATPVMRDSEHFFFDLPSFSEMLQAWTRSGALQEQVANKMQEWFESGLQQWDISRDAPYFGFEIPNAPGKYFYVWLDAPIGLMGSFKNLCDKRGDSVSFDEYWKKDSTAELYHFIGKGIVYFLSLFWPAMLEGSNFRKPSNLFVHGYVTVNGAKMSKSRGTFIKASTWLNHFDADSLRYYYTAKLSSRIDDIDLNLEDFVQRVNADIVNKVVNLASRNAGFINKRFDGVLASELADPQLYKTFTDAAEVIGEAWESREFGKAVREIMALADLANRYVDEQAPWVVAKQEGRDADLQAICSMGINLFRVLMTYLKPVLPKLTERAEAFLNTELTWDGIQQPLLGHKVNPFKALYNRIDMRQVEALVEASK
# modifications: Cy5 fluorophore on lysine side chains
# How the values were obtained:
# [1] = target: peptide with N-terminal phosphotyrosine; assay: biolayer interferometry (Blitz), peptide-coated sensor, NAAB in 1x PBS, 1:1 fit, kd/ka
# Leu = target: T1, Leu; assay: single-molecule TIRF, Cy5-labelled protein on peptide immobilized on nanogel
Binder,Kd [1],Counts (Leu)
B1,1070 nM,–
B2,–,49 counts
